Data on two substances can be found in article PMC8487046.

The target in assay [1] is acetylated BSA (AcBSA) (bovine (from the name BSA)) (UniProt P02769). The assay is described as follows: SPR; AcBSA immobilized (900 RU, CM5, amine coupling; BSA as reference surface), serially diluted SREC-II(44-442) or SR-F1(20-421) injected; TBS-Ca-P; 20 µL/min; 25 °C; global fit, 1:1 Langmuir model; apparent KD. A general note: In SPR one partner is held on a chip, and binding of the other changes the refractive index at the surface.

Assay [2] addresses full‐length SREC‐II at the surface of stably transfected CHO cells (UniProt Q96GP6). The experiment in a line: flow cytometry on cells; SREC-II-overexpressing CHO cells against nontransfected CHO cells, on ice, PBS with 3% BSA; C1q 80 µg/mL (40 min, detected with anti-C1q and Cy-3 anti-mouse antibodies); Alexa Fluor 488-MalBSA or Alexa Fluor 568-CRT at 1, 5 and 10 µg/mL (30 min); MFI ratio. Background: Flow cytometry measures light scatter and fluorescence of single cells or particles in a stream.

Chain of SREC‐II(44‐442), extracellular domain of scavenger receptor expressed by endothelial cells II (Q96GP6 other isoform, or with tags, fused parts or gaps): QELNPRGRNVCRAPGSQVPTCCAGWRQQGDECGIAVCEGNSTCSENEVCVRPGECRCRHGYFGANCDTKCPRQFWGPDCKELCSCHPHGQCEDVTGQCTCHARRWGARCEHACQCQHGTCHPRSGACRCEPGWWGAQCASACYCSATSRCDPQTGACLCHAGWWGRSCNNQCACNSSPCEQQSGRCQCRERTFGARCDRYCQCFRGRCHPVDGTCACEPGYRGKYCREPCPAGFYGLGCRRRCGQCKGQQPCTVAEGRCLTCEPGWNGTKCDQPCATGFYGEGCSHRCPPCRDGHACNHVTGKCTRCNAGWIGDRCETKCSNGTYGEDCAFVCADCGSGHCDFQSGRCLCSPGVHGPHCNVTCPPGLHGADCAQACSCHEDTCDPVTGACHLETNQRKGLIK
Chain of full‐length SREC‐II at the surface of stably transfected CHO cells (Q96GP6 44-871): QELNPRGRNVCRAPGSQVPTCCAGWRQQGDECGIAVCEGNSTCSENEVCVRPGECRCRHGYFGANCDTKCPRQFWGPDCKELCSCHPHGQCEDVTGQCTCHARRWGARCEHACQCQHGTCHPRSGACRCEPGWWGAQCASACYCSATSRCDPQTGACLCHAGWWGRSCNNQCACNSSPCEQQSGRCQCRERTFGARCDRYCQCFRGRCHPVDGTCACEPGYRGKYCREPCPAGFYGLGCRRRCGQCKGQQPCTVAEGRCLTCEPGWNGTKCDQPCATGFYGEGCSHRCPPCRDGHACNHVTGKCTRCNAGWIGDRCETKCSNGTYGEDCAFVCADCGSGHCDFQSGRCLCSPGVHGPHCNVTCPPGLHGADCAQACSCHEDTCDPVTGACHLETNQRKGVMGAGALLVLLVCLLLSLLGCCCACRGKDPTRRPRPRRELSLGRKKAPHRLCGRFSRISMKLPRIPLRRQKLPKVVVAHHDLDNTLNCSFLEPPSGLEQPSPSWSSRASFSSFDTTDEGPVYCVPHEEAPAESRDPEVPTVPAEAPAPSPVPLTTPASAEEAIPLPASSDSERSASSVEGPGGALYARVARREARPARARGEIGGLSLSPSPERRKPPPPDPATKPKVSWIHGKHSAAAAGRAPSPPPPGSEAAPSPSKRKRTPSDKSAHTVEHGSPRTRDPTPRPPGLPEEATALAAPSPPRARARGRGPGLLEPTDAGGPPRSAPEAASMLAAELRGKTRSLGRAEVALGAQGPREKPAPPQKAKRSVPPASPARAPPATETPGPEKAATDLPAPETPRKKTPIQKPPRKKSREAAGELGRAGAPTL
Chain of Alexa Fluor 488‐labelled MalBSA (P02769 25-607): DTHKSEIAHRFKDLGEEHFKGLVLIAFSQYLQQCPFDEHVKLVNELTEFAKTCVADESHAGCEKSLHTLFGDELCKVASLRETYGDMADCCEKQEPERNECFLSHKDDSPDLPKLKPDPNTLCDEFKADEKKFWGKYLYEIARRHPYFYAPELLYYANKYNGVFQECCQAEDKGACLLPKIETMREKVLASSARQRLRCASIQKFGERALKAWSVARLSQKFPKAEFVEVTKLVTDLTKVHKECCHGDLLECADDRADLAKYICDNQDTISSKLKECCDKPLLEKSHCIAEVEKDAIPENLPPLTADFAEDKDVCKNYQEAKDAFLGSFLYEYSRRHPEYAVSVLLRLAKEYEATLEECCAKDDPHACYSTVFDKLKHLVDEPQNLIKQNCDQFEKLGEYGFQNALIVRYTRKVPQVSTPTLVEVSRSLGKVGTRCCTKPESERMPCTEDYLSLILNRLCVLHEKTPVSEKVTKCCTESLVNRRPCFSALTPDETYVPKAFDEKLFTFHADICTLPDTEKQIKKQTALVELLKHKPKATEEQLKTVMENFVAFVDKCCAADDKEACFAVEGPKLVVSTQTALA

“SREC‐II(44‐442), extracellular domain of scavenger receptor expressed by endothelial cells II (from UniProt Q96GP6 44-442) (domain or fragment)”: in assay [1], the Kd is 200 nM; the koff (in general, the rate constant with which the complex falls apart) worked out at 0.00015 s⁻¹; the on-rate (kon) – broadly, a measure of how fast the partners come together – stood at 7800 M⁻¹ s⁻¹.

Take “Alexa Fluor 488‐labelled MalBSA (from UniProt P02769 25-607)”: the increase in binding compared with nontransfected CHO cells in assay [2] fell in the range of 40 to 50%.
